Tested on: CC1=CC(O)C2OC1(C(C)C(C)O)OC(C(C)/C=C(C)/C=C/C(O)=C1C(=O)CNC1=O)C2C
Assay: HPLC product quantification, initial rates, Michaelis-Menten fit
Assay type: biochemical, Saccharothrix syringae
Details: 2 mM NAD^+, pH 8.5, 45°C, 0.2 μM NcmD

NcmD (Saccharothrix syringae) was tested, and the Km was 131 ± 13 µM and the kcat was 1.08 ± 0.083 s⁻¹.

Reference: paper PMC7773637, “Short-Chain Dehydrogenase NcmD Is Responsible for the C-10 Oxidation of Nocamycin F in Nocamycin Biosynthesis” (Frontiers in Microbiology, 2020)
